# Experimental data taken from doi:10.1101/431106, “The architecture of the endoplasmic reticulum is regulated by the reversible lipid modification of the shaping protein CLIMP-63” (bioRxiv, 2018).
# B1: HA-CLIMP-63 V137C (natural protein, UniProt Q07065 1-602, looked up)
# chain: MPSAKQRGSKGGHGAASPSEKGAHPSGGADDVAKKPPPAPQQPPPPPAPHPQQHPQQHPQNQAHGKGGHRGGGGGGGKSSSSSSASAAAAAAAASSSASCSRRLGRALNFLFYLALVAAAAFSGWCVHHVLEEVQQCRRSHQDFSRQREELGQGLQGVEQKVQSLQATFGTFESILRSSQHKQDLTEKAVKQGESEVSRISEVLQKLQNEILKDLSDGIHVVKDARERDFTSLENTVEERLTELTKSINDNIAIFTEVQKRSQKEINDMKAKVASLEESEGNKQDLKALKEAVKEIQTSAKSREWDMEALRSTLQTMESDIYTEVRELVSLKQEQQAFKEAADTERLALQALTEKLLRSEESVSRLPEEIRRLEEELRQLKSDSHGPKEDGGFRHSEAFEALQQKSQGLDSRLQHVEDGVLSMQVASARQTESLESLLSKSQEHEQRLAALQGRLEGLGSSEADQDGLASTVRSLGETQLVLYGDVEELKRSVGELPSTVESLQKVQEQVHTLLSQDQAQAARLPPQDFLDRLSSLDNLKASVSQVEADLKMLRTAVDSLVAYSVKIETNENNLESAKGLLDDLRNDLDRLFVKVEKIHEKV
# notes: Made to trap dimers through a disulfide bond; also called V137C CLIMP-63; V137C mutant; source: HeLa (control or ZDHHC6 KO), transfected 24 hours, total cell extracts or immunoprecipitated with HA-beads; not shown: HA, N-terminal, kept
# B2: cytoskeleton-linking membrane protein 63 (CLIMP-63), endogenous (natural protein, human (endogenous in HeLa), UniProt Q07065 1-602, looked up)
# chain: MPSAKQRGSKGGHGAASPSEKGAHPSGGADDVAKKPPPAPQQPPPPPAPHPQQHPQQHPQNQAHGKGGHRGGGGGGGKSSSSSSASAAAAAAAASSSASCSRRLGRALNFLFYLALVAAAAFSGWCVHHVLEEVQQVRRSHQDFSRQREELGQGLQGVEQKVQSLQATFGTFESILRSSQHKQDLTEKAVKQGESEVSRISEVLQKLQNEILKDLSDGIHVVKDARERDFTSLENTVEERLTELTKSINDNIAIFTEVQKRSQKEINDMKAKVASLEESEGNKQDLKALKEAVKEIQTSAKSREWDMEALRSTLQTMESDIYTEVRELVSLKQEQQAFKEAADTERLALQALTEKLLRSEESVSRLPEEIRRLEEELRQLKSDSHGPKEDGGFRHSEAFEALQQKSQGLDSRLQHVEDGVLSMQVASARQTESLESLLSKSQEHEQRLAALQGRLEGLGSSEADQDGLASTVRSLGETQLVLYGDVEELKRSVGELPSTVESLQKVQEQVHTLLSQDQAQAARLPPQDFLDRLSSLDNLKASVSQVEADLKMLRTAVDSLVAYSVKIETNENNLESAKGLLDDLRNDLDRLFVKVEKIHEKV
# modifications: S-palmitoylation on Cys-100 in the majority (87%) of the cellular protein
# notes: CLIMP-63 (CKAP4), endogenous protein of HeLa cells; also called CKAP4; source: endogenous, HeLa cells (membrane fraction, total cell extracts, fixed cells)
# Legend:
# [1] = target: the molecule itself; assay: cross-linking; disulfide trapping by an engineered cysteine; 35S Cys-Met 20 min pulse, immunoprecipitated using HA-beads, non-reducing SDS-PAGE, autoradiography; control cells and ZDHHC6 KO cells
# [2] = target: the molecule itself; assay: cross-linking; HeLa cells crosslinked 5 min at room temperature with 1mM BMOE, 1mM DSS or 0.025% glutaraldehyde; non-reducing SDS-PAGE, anti-CLIMP-63 blot
Protein,stoichiometry N [1],stoichiometry N [2]
B1,2,
B2,,2
